Assay results as given in article PMC12412652.

Columns and labels:
[1] = target: MBP-BAX 1-166 C62S C126S, biotinylated (Avi tag, 6-histidine tag) (human), Q07812; experiment: BLI; Octet RED96; biotinylated BCL-2 family proteins (25 nM) immobilised on streptavidin biosensors, designed protein in solution; 10 mM Hepes pH 7.4, 150 mM NaCl, 3 mM EDTA, 0.05% surfactant P20, 0.5% nonfat dry milk; titrations in triplicate, 1:1 binding model
[2] = target: T1, MBP-BAK 16-186, biotinylated (Avi tag, 6-histidine tag) (human), Q16611; experiment: as above
T1 chain: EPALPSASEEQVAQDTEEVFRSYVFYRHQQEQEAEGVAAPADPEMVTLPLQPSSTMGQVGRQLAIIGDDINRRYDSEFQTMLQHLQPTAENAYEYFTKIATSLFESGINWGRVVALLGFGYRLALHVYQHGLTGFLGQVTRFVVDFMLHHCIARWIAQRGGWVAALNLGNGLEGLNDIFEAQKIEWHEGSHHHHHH

Sequence of MBP-BAX 1-166 C62S C126S, biotinylated (Avi tag, 6-histidine tag) (human), Q07812 (Q07812 1-166 C62S/C126S): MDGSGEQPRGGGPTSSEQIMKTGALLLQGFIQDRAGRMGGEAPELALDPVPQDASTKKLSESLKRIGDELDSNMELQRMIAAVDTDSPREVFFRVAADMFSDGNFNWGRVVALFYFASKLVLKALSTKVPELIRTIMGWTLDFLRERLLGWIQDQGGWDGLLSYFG

B1: MBP-fused BH3 peptide from BID (domain or fragment)
chain: SESQEDIIRNIARHLAQVGDSMDRSIPPGLVNGL
modifications: not checked
Kd [1]: 464 nM | Kd [2]: > 4000 nM
